± gives the standard deviation.

Results on 56 substances are retold here after the supplement of paper PMC10598134.

The nature of this data set: collision cross section of modified peptide (TIMS, N2, iRT-aligned); higher = larger / more extended gas-phase ion. The procedure, abridged:
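Collision cross section values rest on the Mason-Schamp equation applied to calibrated, run-aligned mobility data from synthetic peptides. Mobility (1/K0) was calibrated with three reference ions and aligned per run to the median iRT peptide deviation, and 1–3 technical replicates of the most abundant feature per charge state were averaged. Data came from a timsTOF Pro/HT in dda-PASEF mode (nitrogen, ~2.4 mbar) after a 120-min nanoflow C18 gradient at 60 °C.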

[1] abbreviates: charge state: 2, modification: Nitro (Y).
Where [2] appears, read: charge state: 3, modification: Nitro (Y).
[3] abbreviates: charge state: 2, modification: GlyGly (K).
[4] abbreviates: charge state: 3, modification: GlyGly (K).
The mark [5] stands for this setting: charge state: 2, modification: Butyryl.
Where [6] appears, read: charge state: 2, modification: Malonyl.
Where [7] appears, read: charge state: 2, modification: Trimethyl (K).
Setting [8] is: charge state: 3, modification: Trimethyl (K).
The mark [9] stands for this setting: charge state: 2, modification: Hydroxyproline.
Setting [10] is: charge state: 3, modification: Hydroxyproline.
The mark [11] stands for this setting: charge state: 2, modification: Phospho (Y).
[12] abbreviates: charge state: 3, modification: Phospho (Y).
Where [13] appears, read: charge state: 2, modification: Dimethyl (K).
Setting [14] is: charge state: 3, modification: Dimethyl (K).
Where [15] appears, read: charge state: 3, modification: HexNAc (ST).
The mark [16] stands for this setting: charge state: 2, modification: Methyl (K).
Setting [17] is: charge state: 3, modification: Methyl (K).
The mark [18] stands for this setting: charge state: 2, modification: Methyl (R).
The mark [19] stands for this setting: charge state: 2, modification: Glutarylation.
Where [20] appears, read: charge state: 3, modification: Glutarylation.
The mark [21] stands for this setting: charge state: 2, modification: Crotonyl.
The mark [22] stands for this setting: charge state: 2, modification: Succinyl.
[23] abbreviates: charge state: 2, modification: HexNAc (ST).
The mark [24] stands for this setting: charge state: 2, modification: hydroxyisobutyryl.
Where [25] appears, read: charge state: 3, modification: Methyl (R).
The mark [26] stands for this setting: charge state: 3, modification: Crotonyl.

On to LYAVHQEGNK [_LY(Nitro (Y))AVHQEGNK_], for which the collision cross section reads like this: under setting [1], 359.52 ± 0.17 Å²; under setting [2], 458.4 ± 0.23 Å².

Take LSSETYSQAK [_LSSETY(Nitro (Y))SQAK_]: under setting [1], the collision cross section is 352.74 ± 0.47 Å².

In the case of FDDTNPEKEEAK [_FDDTNPEK(Formyl)EEAK_], the collision cross section reads like this: (charge state: 2, modification: Formyl) 390.88 ± 0.55 Å²; (charge state: 3, modification: Formyl) 435.1 Å².

On to GSLEKGSPEDK [_GSLEK(GlyGly (K))GSPEDK_], for which the collision cross section is 367.44 ± 0.9 Å² under setting [3] and 425.67 ± 1.6 Å² under setting [4].

The substance “YEEIVKEVSTYIK [_YEEIVK(GlyGly (K))EVSTYIK_]” came in with a collision cross section under setting [3] of 459.86 ± 0.94 Å² and a collision cross section under setting [4] of 512.47 ± 1.1 Å².

Consider FDDTNPEKEEAK [_FDDTNPEK(Butyryl)EEAK_], for which the collision cross section by setting is: under setting [5], 399.47 ± 0.85 Å²; (charge state: 3, modification: Butyryl) 440.77 ± 2 Å².

Regarding “GGGYGGDRGGYGGDR [_GGGYGGDR(Citrullination (R))GGYGGDR_]”, the collision cross section (charge state: 2, modification: Citrullination (R)) is 373.62 ± 7.7 Å².

As for FDDTNPEKEEAK [_FDDTNPEK(Malonyl)EEAK_], the collision cross section under setting [6] is 398.04 ± 0.6 Å².

Regarding “VFIGNLNTLVVKK [_VFIGNLNTLVVK(GlyGly (K))K_]”, the collision cross section reads like this: under setting [3], 445.95 ± 1.4 Å²; under setting [4], 487.11 ± 2 Å².

Turning to “FDDTNPEKEEAK [_FDDTNPEK(Trimethyl (K))EEAK_]”, the collision cross section by setting is: under setting [7], 399.27 ± 1.6 Å²; under setting [8], 487.6 ± 1.9 Å².

“PPGFSPFRSSR [_PP(Hydroxyproline)GFSPFRSSR_]” returned a collision cross section under setting [9] of 367.16 Å² and a collision cross section under setting [10] of 458.87 ± 0.35 Å².

In the case of YLHDESGLNR [_Y(Phospho (Y))LHDESGLNR_], the collision cross section is on record as 372.11 ± 0.77 Å² under setting [11] and 460.83 ± 0.1 Å² under setting [12].

With LAEEENKAK [_LAEEENK(Dimethyl (K))AK_], the collision cross section stood at 348.03 ± 0.59 Å² under setting [13] and 411.22 ± 2.8 Å² under setting [14].

Substance “IPAASAAAMNLASAR [_IPAAS(HexNAc (ST))AAAMNLASAR_]” yielded a collision cross section under setting [15] of 504.78 ± 1.3 Å².

For “VFSIISSEKELK [_VFSIISSEK(Methyl (K))ELK_]”, the collision cross section was 411.54 ± 0.9 Å² under setting [16] and 489.57 ± 1.9 Å² under setting [17].

Under setting [18], AQVLAGGRGK [_AQVLAGGR(Methyl (R))GK_] yielded a collision cross section of 352.61 ± 7.6 Å².

In turn, “FLQEFYQDDELGKK [_FLQEFYQDDELGK(Gluratylation)K_]” gave a collision cross section under setting [19] of 453.64 ± 1.5 Å² and a collision cross section under setting [20] of 517.26 Å².

As to “VDIDAPDVSIEGPDAKLK [_VDIDAPDVSIEGPDAK(Crotonyl)LK_]”, the collision cross section under setting [21] turned out to be 471.19 ± 1.1 Å².

Substance “GLPGPPGPQGESR [_GLP(Hydroxyproline)GPPGPQGESR_]” displayed a collision cross section under setting [9] of 363.77 ± 1.6 Å².

In the case of “DKALPLEAEVAPVK [_DK(Trimethyl (K))ALPLEAEVAPVK_]”, the collision cross section is 415.71 ± 1.1 Å² under setting [7] and 491.82 ± 2.4 Å² under setting [8].

As for “FLQEFYQDDELGKK [_FLQEFYQDDELGK(Dimethyl (K))K_]”, the collision cross section runs as follows: under setting [13], 456.43 ± 1.8 Å²; under setting [14], 499.62 ± 0.75 Å².

As to TPNLYIYSKK [_TPNLYIYSK(Succinyl)K_], under setting [22], the collision cross section is 387.96 ± 0.52 Å².

On to “RFSPPSSSLQPGK [_RFS(HexNAc (ST))PPSSSLQPGK_]”, for which the collision cross section is listed as 414.91 ± 1 Å² under setting [23] and 448.47 ± 9.4 Å² under setting [15].

Consider LAEQEAHYAVR [_LAEQEAHY(Nitro (Y))AVR_], for which the collision cross section reads like this: under setting [1], 388.92 ± 0.55 Å²; under setting [2], 469.49 ± 1.9 Å².

Regarding LDHLAEKFR [_LDHLAEK(GlyGly (K))FR_], the collision cross section reads like this: under setting [3], 374.05 ± 1.1 Å²; under setting [4], 449.01 ± 1.6 Å².

Under setting [20], “HELQANCYEEVKDR [_HELQANCYEEVK(Gluratylation)DR_]” showed a collision cross section of 487.76 ± 1.7 Å².

Substance “INNFSADIKDSK [_INNFSADIK(Gluratylation)DSK_]” registered a collision cross section under setting [19] of 404.4 ± 4.7 Å² and a collision cross section under setting [20] of 469.07 Å².

The substance “TPNLYIYSKK [_TPNLYIYSK(hydroxyisobutyryl)K_]” yielded a collision cross section under setting [24] of 388.68 ± 3 Å².

In the case of “VGLQVVAVKAPGFGDNR [_VGLQVVAVK(Dimethyl (K))APGFGDNR_]”, the collision cross section is on record as 465.4 ± 1.7 Å² under setting [13] and 490.92 ± 1.2 Å² under setting [14].

As for TLDEILQEKK [_TLDEILQEK(Dimethyl (K))K_], the collision cross section runs as follows: under setting [13], 379.42 ± 0.37 Å²; under setting [14], 430.63 ± 2 Å².

For “GADFLVTEVENGGSLGSKK [_GADFLVTEVENGGSLGSK(GlyGly (K))K_]”, the collision cross section under setting [3] was 505.48 Å².

Take PRGVISTPVIR [_PR(Methyl (R))GVISTPVIR_]: the collision cross section reads like this: under setting [18], 373.92 Å²; under setting [25], 447.15 ± 2.7 Å².

For “LEKTIDDLEEK [_LEK(Dimethyl (K))TIDDLEEK_]”, the collision cross section stood at 401.15 ± 1.1 Å² under setting [13] and 461.19 ± 2.1 Å² under setting [14].

In turn, LGSPSGKTGTCR [_LGSPSGK(Butyryl)TGTCR_] yielded a collision cross section under setting [5] of 373.24 ± 0.22 Å².

“VDVEVPDVSLEGPEGKLK [_VDVEVPDVSLEGPEGK(Methyl (K))LK_]”: the collision cross section is, setting by setting: under setting [16], 462.48 ± 7.8 Å²; under setting [17], 551.69 ± 1.3 Å².

Substance “DYQPGITFIVVQK [_DYQP(Hydroxyproline)GITFIVVQK_]” gave a collision cross section under setting [9] of 402.94 ± 0.79 Å² and a collision cross section under setting [10] of 487.91 Å².

As for LAEEENKAK [_LAEEENK(Trimethyl (K))AK_], the collision cross section amounted to 353.67 ± 0.62 Å² under setting [7] and 413.12 Å² under setting [8].

In the case of “FVDSKVGEFSGANK [_FVDSK(Gluratylation)VGEFSGANK_]”, the collision cross section under setting [19] is recorded as 419.09 Å².

FEGAIYR [_FEGAIY(Nitro (Y))R_]: under setting [1], the collision cross section is 321.92 ± 0.71 Å².

For “LQAAYAGDKADDIQK [_LQAAYAGDK(Crotonyl)ADDIQK_]”, the collision cross section runs as follows: under setting [21], 436.53 ± 0.29 Å²; under setting [26], 487.02 ± 2.8 Å².

Under setting [19], “DYSSGFGGKYGVQADR [_DYSSGFGGK(Gluratylation)YGVQADR_]” showed a collision cross section of 441.26 ± 0.95 Å².

On to “ANEKTESSSAQQVAVSR [_ANEK(GlyGly (K))TESSSAQQVAVSR_]”, for which the collision cross section by setting is: under setting [3], 467.32 ± 0.84 Å²; under setting [4], 498.93 ± 1.1 Å².

“SITHSTVGSKGEK [_SITHSTVGSK(Malonyl)GEK_]”: the collision cross section reads like this: under setting [6], 390.69 ± 2.2 Å²; (charge state: 3, modification: Malonyl) 440.36 ± 2.7 Å².

For the substance “ASDTSSETVFGKR [_ASDTSSETVFGK(Crotonyl)R_]”, the collision cross section was found to be 402.93 ± 0.81 Å² under setting [21] and 478.92 ± 1.3 Å² under setting [26].

With “ANLEKAQAELVGTADEATR [_ANLEK(Gluratylation)AQAELVGTADEATR_]”, the collision cross section reads like this: under setting [19], 478.84 ± 1.4 Å²; under setting [20], 584.83 ± 0.77 Å².

Substance “SITHSTVGSKGEK [_SITHSTVGSK(Crotonyl)GEK_]” registered a collision cross section under setting [21] of 402.71 ± 8.6 Å² and a collision cross section under setting [26] of 442.34 ± 1.6 Å².

“SLFFGGKGAPLQR [_SLFFGGK(Succinyl)GAPLQR_]” displayed a collision cross section under setting [22] of 401.28 ± 0.38 Å².

As to “IDLPAENSNSETIIITGKR [_IDLPAENSNSETIIITGK(GlyGly (K))R_]”, the collision cross section stood at 493.9 ± 1.8 Å² under setting [3] and 582.79 ± 0.38 Å² under setting [4].

As for “IISSIEQKEENK [_IISSIEQK(Dimethyl (K))EENK_]”, the collision cross section worked out at 410.65 ± 1.1 Å² under setting [13] and 464.23 ± 1.4 Å² under setting [14].

“HHAAYVNNLNVTEEK [_HHAAY(Phospho (Y))VNNLNVTEEK_]”: the collision cross section is 438.56 Å² under setting [11] and 495.42 ± 1.2 Å² under setting [12].

With LSEHATAPTR [_LSEHATAPT(HexNAc (ST))R_], the collision cross section reads like this: under setting [23], 370.75 ± 0.68 Å²; under setting [15], 450.64 ± 0.17 Å².

Under setting [25], “SRGGGGNFGPGPGSNFR [_SR(Methyl (R))GGGGNFGPGPGSNFR_]” came in with a collision cross section of 461.66 ± 1.4 Å².

With “TTEETSKPK [_TTEETSK(hydroxyisobutyryl)PK_]”, the collision cross section under setting [24] was found to be 347.15 ± 3.9 Å².

Consider VVPGYGHAVLR [_VVPGY(Nitro (Y))GHAVLR_], for which the collision cross section by setting is: under setting [1], 383.51 ± 0.17 Å²; under setting [2], 449.51 ± 1.1 Å².

For the substance SKHLQEQLNELK [_SK(Crotonyl)HLQEQLNELK_], the collision cross section reads like this: under setting [21], 421.79 ± 0.28 Å²; under setting [26], 491.86 ± 3.7 Å².

As to SEGFDTYR [_SEGFDTY(Phospho (Y))R_], the collision cross section under setting [11] was determined as 338.3 ± 0.78 Å².
